Source: US20130189255A1, “FUSIONS AND CONJUGATES OF INSULINOTROPIC AGENTS” (GLAXO GROUP LIMITED, priority 2008, published 2013)

Target: human GLP-1 receptor (human) (UniProt P43220)
Test: cell-based or functional assay

human GLP-1 receptor (human), sequence (P43220 24-463): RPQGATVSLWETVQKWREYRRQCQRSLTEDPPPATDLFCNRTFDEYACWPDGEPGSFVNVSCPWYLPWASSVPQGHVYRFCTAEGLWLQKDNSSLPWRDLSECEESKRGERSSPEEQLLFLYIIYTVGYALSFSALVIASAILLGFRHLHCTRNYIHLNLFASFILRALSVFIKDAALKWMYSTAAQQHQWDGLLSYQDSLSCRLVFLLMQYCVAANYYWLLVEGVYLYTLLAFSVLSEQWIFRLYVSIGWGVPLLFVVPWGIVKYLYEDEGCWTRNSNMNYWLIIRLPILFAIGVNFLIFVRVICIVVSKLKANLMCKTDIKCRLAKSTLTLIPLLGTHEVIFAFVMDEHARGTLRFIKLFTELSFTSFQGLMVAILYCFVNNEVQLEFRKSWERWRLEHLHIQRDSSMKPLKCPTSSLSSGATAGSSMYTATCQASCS

- GLP-1R BA (10 uM albumin) EC50 (pM) n = 2 (CRE-luciferase reporter in CHO 6CRE GLP1R cells): 19 pM
- GLP-1R BA EC50 (pM) n = 3 (CRE-luciferase reporter in CHO 6CRE GLP1R cells): 21 pM
Substance: GLP-1 7-36 (from UniProt P01275 21-180) (peptide)
